Sequences and labels used below:
B1: EHEE_rd4_0086 (parent)
chain: EIHIRTNGEEQARKVYKMLAKRNYDVKIEQHNGQWVVTAS

Here are results for 63 variants from the MegaScale stability set (Tsuboyama et al. 2023).

The variants in this series derive from B1. The series is described as follows: folding stability dG (cDNA display proteolysis); higher = more stable. As to conditions: PBS, room temperature.
As to EIHIRTNGEEQARKVYKMLAKRNYDVKIEQHTGQWVVTAS [N32T], the “folding stability dG” value was found to be 0.816 kcal/mol. In the case of EIHIRTNGEEQARKVYKMLAKRNYDVKIEQHHGQWVVTAS [N32H] it was 1.55 kcal/mol; in that of EIHIRTNGEEQARKVYKMLAKRNYDVKIEQHGGQWVVTAS [N32G], 1.86 kcal/mol; in that of EIHIRTNGEEQARKVYKMLAKRNYDVKIEQHNEQWVVTAS [G33E], 1.21 kcal/mol. In the case of EIHIRTNGEEQARKVYKMLAKRNYDVKIEQHNTQWVVTAS [G33T] it was 0.841 kcal/mol; in that of EIHIRTNGEEQARKVYKMLAKRNYDVKIEQHNRQWVVTAS [G33R], 0.801 kcal/mol. For EIHIRTNGEEQARKVYKMLAKRNYDVKIEQHNNQWVVTAS [G33N] the value was 1.24 kcal/mol; for EIHIRTNGEEQARKVYKMLAKRNYDVKIEQHNSQWVVTAS [G33S], 1.08 kcal/mol; for EIHIRTNGEEQARKVYKMLAKRNYDVKIEQHNHQWVVTAS [G33H], 1.49 kcal/mol. For EIHIRTNGEEQARKVYKMLAKRNYDVKIEQHNFQWVVTAS [G33F], the “folding stability dG” value was found to be 0.875 kcal/mol. In the case of EIHIRTNGEEQARKVYKMLAKRNYDVKIEQHNAQWVVTAS [G33A] it was 0.852 kcal/mol. In the case of EIHIRTNGEEQARKVYKMLAKRNYDVKIEQHNVQWVVTAS [G33V] it was 0.374 kcal/mol; in that of EIHIRTNGEEQARKVYKMLAKRNYDVKIEQHNDQWVVTAS [G33D], 1.35 kcal/mol. In the case of EIHIRTNGEEQARKVYKMLAKRNYDVKIEQHNKQWVVTAS [G33K] it was 0.996 kcal/mol; in that of EIHIRTNGEEQARKVYKMLAKRNYDVKIEQHNYQWVVTAS [G33Y], 0.642 kcal/mol; in that of EIHIRTNGEEQARKVYKMLAKRNYDVKIEQHNIQWVVTAS [G33I], 0.069 kcal/mol. On to EIHIRTNGEEQARKVYKMLAKRNYDVKIEQHNLQWVVTAS [G33L], for which the “folding stability dG” value was determined as 0.714 kcal/mol. In the case of EIHIRTNGEEQARKVYKMLAKRNYDVKIEQHNQQWVVTAS [G33Q] it was 0.937 kcal/mol. For EIHIRTNGEEQARKVYKMLAKRNYDVKIEQHNMQWVVTAS [G33M] the value was 0.969 kcal/mol; for EIHIRTNGEEQARKVYKMLAKRNYDVKIEQHNWQWVVTAS [G33W], 0.42 kcal/mol. Consider EIHIRTNGEEQARKVYKMLAKRNYDVKIEQHNGQWWVTAS [V36W], for which the “folding stability dG” value was 2.3 kcal/mol. In the case of EIHIRTNGEEQARKVYKMLAKRNYDVKIEQHNGQWLVTAS [V36L] it was 1.78 kcal/mol. For the variant EIHIRTNGEEQARKVYKMLAKRNYDVKIEQHNGQWAVTAS [V36A], the “folding stability dG” value was determined as 0.857 kcal/mol.

On to EIHIRTNGEEQARKVYKMLAKRNYDVKIEQHNGQWKVTAS [V36K], for which the “folding stability dG” value is 0.658 kcal/mol. For EIHIRTNGEEQARKVYKMLAKRNYDVKIEQHNGQWSVTAS [V36S], the “folding stability dG” value is 1.23 kcal/mol. In the case of EIHIRTNGEEQARKVYKMLAKRNYDVKIEQHNGQWRVTAS [V36R] it was 1.07 kcal/mol; in that of EIHIRTNGEEQARKVYKMLAKRNYDVKIEQHNGQWHVTAS [V36H], 1.56 kcal/mol.

Take EIHIRTNGEEQARKVYKMLAKRNYDVKIEQHNGQWIVTAS [V36I]: the “folding stability dG” value stood at 2.15 kcal/mol. In the case of EIHIRTNGEEQARKVYKMLAKRNYDVKIEQHNGQWDVTAS [V36D] it was 0.384 kcal/mol; in that of EIHIRTNGEEQARKVYKMLAKRNYDVKIEQHNGQWNVTAS [V36N], 0.466 kcal/mol; in that of EIHIRTNGEEQARKVYKMLAKRNYDVKIEQHNGQWGVTAS [V36G], 0.463 kcal/mol. In the case of EIHIRTNGEEQARKVYKMLAKRNYDVKIEQHNGQWEVTAS [V36E] it was 0.934 kcal/mol; in that of EIHIRTNGEEQARKVYKMLAKRNYDVKIEQHNGQWYVTAS [V36Y], 2.13 kcal/mol; in that of EIHIRTNGEEQARKVYKMLAKRNYDVKIEQHNGQWQVTAS [V36Q], 1.07 kcal/mol. Consider EIHIRTNGEEQARKVYKMLAKRNYDVKIEQHNGQWFVTAS [V36F], for which the “folding stability dG” value was determined as 2.06 kcal/mol.

In the case of EIHIRTNGEEQARKVYKMLAKRNYDVKIEQHNGQWMVTAS [V36M], the “folding stability dG” value came out at 1.58 kcal/mol. For EIHIRTNGEEQARKVYKMLAKRNYDVKIEQHNGQWTVTAS [V36T] the value was 1.39 kcal/mol; for EIHIRTNGEEQARKVYKMLAKRNYDVKIEQHNGQVVVTAS [W35V], -0.525 kcal/mol; for EIHIRTNGEEQARKVYKMLAKRNYDVKIEQHNGQFVVTAS [W35F], 1.01 kcal/mol. In the case of EIHIRTNGEEQARKVYKMLAKRNYDVKIEQHNGQTVVTAS [W35T] it was -0.759 kcal/mol; in that of EIHIRTNGEEQARKVYKMLAKRNYDVKIEQHNGQLVVTAS [W35L], -0.221 kcal/mol; in that of EIHIRTNGEEQARKVYKMLAKRNYDVKIEQHNGQIVVTAS [W35I], -0.153 kcal/mol. For EIHIRTNGEEQARKVYKMLAKRNYDVKIEQHNGQMVVTAS [W35M] the value was -0.847 kcal/mol; for EIHIRTNGEEQARKVYKMLAKRNYDVKIEQHNGQYVVTAS [W35Y], 0.915 kcal/mol.

EIHIRTNGEEQARKVYKMLAKRNYDVKIEQQNGQWVVTAS [H31Q]: the “folding stability dG” value was 1.95 kcal/mol.

Take EIHIRTNGEEQARKVYKMLAKRNYDVKIEQFNGQWVVTAS [H31F]: the “folding stability dG” value is 2.11 kcal/mol. With EIHIRTNGEEQARKVYKMLAKRNYDVKIEQCNGQWVVTAS [H31C], the “folding stability dG” value was found to be 2.09 kcal/mol. In the case of EIHIRTNGEEQARKVYKMLAKRNYDVKIEQANGQWVVTAS [H31A] it was 1.67 kcal/mol; in that of EIHIRTNGEEQARKVYKMLAKRNYDVKIEQWNGQWVVTAS [H31W], 2.15 kcal/mol; in that of EIHIRTNGEEQARKVYKMLAKRNYDVKIEQVNGQWVVTAS [H31V], 2.24 kcal/mol. For EIHIRTNGEEQARKVYKMLAKRNYDVKIEQYNGQWVVTAS [H31Y] the value was 2.03 kcal/mol; for EIHIRTNGEEQARKVYKMLAKRNYDVKIEQRNGQWVVTAS [H31R], 1.98 kcal/mol; for EIHIRTNGEEQARKVYKMLAKRNYDVKIEQTNGQWVVTAS [H31T], 1.71 kcal/mol.

For the variant EIHIRTNGEEQARKVYKMLAKRNYDVKIEQKNGQWVVTAS [H31K], the “folding stability dG” value is 2.04 kcal/mol.

On to EIHIRTNGEEQARKVYKMLAKRNYDVKIEQINGQWVVTAS [H31I], for which the “folding stability dG” value was found to be 2.43 kcal/mol.

As to EIHIRTNGEEQARKVYKMLAKRNYDVKIEQMNGQWVVTAS [H31M], the “folding stability dG” value came to 2.03 kcal/mol. For EIHIRTNGEEQARKVYKMLAKRNYDVKIEQLNGQWVVTAS [H31L] the value was 2.12 kcal/mol. For the variant EIHIRTNGEEQARKVYKMLAKRNYDVKIEQPNGQWVVTAS [H31P], the “folding stability dG” value was determined as 0.168 kcal/mol. As for EIHIRTNGEEQARKVYKMLAKRNYDVKIEQENGQWVVTAS [H31E], the “folding stability dG” value amounted to 1.85 kcal/mol. Take EIHIRTNGEEQARKVYKMLAKRNYDVKIEQDNGQWVVTAS [H31D]: the “folding stability dG” value was determined as 1.78 kcal/mol. In the case of EIHIRTNGEEQARKVYKMLAKRNYDVKIEQGNGQWVVTAS [H31G] it was 0.849 kcal/mol; in that of EIHIRTNGEEQARKVYKMLAKRNYDVKIEQNNGQWVVTAS [H31N], 1.72 kcal/mol; in that of EIHIRTNGEEQARKVYKMLAKRNYDVKIEQSNGQWVVTAS [H31S], 1.78 kcal/mol.
